Measured values from the supplement of paper PMC10126150.
± gives the standard deviation of the averaged measurements.

Tested on: ATP
Assay: switch fluorescence ratio, 500 uM ATP over buffer (Cy3 cluster intensity, sum of 5 cycles each) (fold (ratio)); higher = stronger signal-on switching upon ATP binding; sequences stand for … in TCGTCGGCAGCGTCAGATGTGTATAAGAGACAGTTTTTTTTTTTTTTTTTTTTTTTTT…TC
Settings: aptamer strand: ATP DNA aptamer (quencher-CACCTGGGGGAGTATTGCGGAGGAAGG + anchor), 100 nM annealed; ATP concentration: 500 uM
Method in brief: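 Exposure to 500 uM ATP lasted 15 min at 22 °C before imaging, and a selection-buffer image was taken beforehand, for Cy3-labelled switching-strand clusters on a modified Illumina MiSeq flow-cell annealed to 100 nM quencher-labelled ATP aptamer. Five buffer/ATP cycles were run with NaOH stripping and re-annealing between them. The fluorescence ratio per cluster is summed target-cycle over summed buffer-cycle Cy3 intensity, averaged per switch-domain sequence. Clusters outside 100-1000 RFU were excluded.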

| Sequence | switch fluorescence ratio |
| --- | --- |
| ACTGGGGTTT | 0.982 ± 0.024 |
| ACTGGGTACC | 1.05 ± 0.012 |
| ACTGGGTCGA | 1.04 ± 0.034 |
| ACTGGGTTTG | 1.001 ± 0.0043 |
| ACTGGTAAGG | 1.009 ± 0.0053 |
| ACTGGTATGG | 1.01 ± 0.025 |
| ACTGGTCAGC | 1 ± 0.029 |
| ACTGGTCGCC | 0.992 ± 0.015 |
| ACTGGTGGCA | 1.04 ± 0.028 |
| ACTGGTTGGG | 0.966 ± 0.018 |
| ACTGTAGTCT | 1.06 ± 0.012 |
| ACTGTGTGTT | 1.01 ± 0.025 |
| ACTGTTAGGC | 1.01 ± 0.056 |
| ACTGTTATTT | 1.0389 ± 0.00024 |
| ACTGTTTGTC | 0.9897 ± 0.0061 |
| ACTGTTTTCT | 1.05 ± 0.02 |
| ACTGTTTTGC | 0.999 ± 0.019 |
| ACTGTTTTTC | 1 ± 0.013 |
| ACTTAAAAGG | 1.0122 ± 0.00061 |
| ACTTAAGTAG | 0.987 ± 0.04 |
| ACTTACGGGC | 1.513 ± 0.0058 |
| ACTTATCAGG | 1.04 ± 0.045 |
| ACTTATGTGG | 0.974 ± 0.018 |
| ACTTATTAAA | 1.03 ± 0.034 |
| ACTTATTCGG | 1.02 ± 0.019 |

| Sequence | switch fluorescence ratio |
| --- | --- |
| ACTTCCGGG | 1.33 ± 0.27 |
| ACTTCGTTCT | 1.03 ± 0.034 |
| ACTTCTAGCG | 1.02 ± 0.072 |
| ACTTGACCCG | 1.08 ± 0.064 |
| ACTTGAGGGA | 0.9743 ± 0.0071 |
| ACTTGAGGGG | 1.03 ± 0.043 |
| ACTTGAGGTC | 0.991 ± 0.028 |
| ACTTGCGGCT | 1 ± 0.05 |
| ACTTGCGTCG | 0.981 ± 0.023 |
| ACTTGGAGGG | 1.01 ± 0.011 |
| ACTTGGCGTC | 1.02 ± 0.06 |
| ACTTGGGGGT | 1.02 ± 0.016 |
| ACTTGGTCCA | 0.987 ± 0.016 |
| ACTTGTAATT | 0.997 ± 0.026 |
| ACTTGTGACA | 1.12 ± 0.18 |
| ACTTGTGTAA | 1.018 ± 0.0021 |
| ACTTGTTTGC | 1.03 ± 0.035 |
| ACTTTAGGGG | 1.06 ± 0.044 |
| ACTTTATGTT | 1.041 ± 0.0015 |
| ACTTTATTGG | 1.03 ± 0.024 |
| ACTTTCACGG | 1.32 ± 0.044 |
| ACTTTGGCGG | 0.981 ± 0.044 |
| ACTTTGTCAT | 0.981 ± 0.017 |
| ACTTTGTTCT | 1 ± 0.027 |
| ACTTTTGTTT | 1.02 ± 0.015 |

| Sequence | switch fluorescence ratio |
| --- | --- |
| AGAAAAAACA | 0.986 ± 0.02 |
| AGAAAAAACG | 1.05 ± 0.092 |
| AGAAAAAAGG | 1.23 ± 0.42 |
| AGAAAAAAGT | 1.03 ± 0.12 |
| AGAAAAAGGC | 1.02 ± 0.065 |
| AGAAAAAGGG | 1.01 ± 0.037 |
| AGAAAAATTT | 1.19 ± 0.29 |
| AGAAAAGCTC | 1.02 ± 0.033 |
| AGAAAAGGGA | 0.995 ± 0.017 |
| AGAAAGAGGT | 1.011 ± 0.0096 |
| AGAAAGTTGA | 1.024 ± 0.01 |
| AGAAATCCTT | 0.976 ± 0.036 |
| AGAAATCTTG | 0.983 ± 0.021 |
| AGAACCACCG | 1.12 ± 0.032 |
| AGAAGAATTG | 1.04 ± 0.048 |
| AGAAGAGGTG | 1.07 ± 0.029 |
| AGAAGAGTGT | 1.03 ± 0.038 |
| AGAAGCGCGG | 0.975 ± 0.044 |
| AGAAGGGTT | 1.016 ± 0.0044 |
| AGAAGTGGGG | 0.989 ± 0.039 |
| AGAAGTTTTA | 1.01 ± 0.075 |
| AGAATAGTCA | 1 ± 0.037 |
| AGAATCGAAG | 0.994 ± 0.0041 |
| AGAATGGGGG | 1.02 ± 0.022 |
| AGAATGGTGA | 0.96 ± 0.061 |

| Sequence | switch fluorescence ratio |
| --- | --- |
| AGAATGTACG | 1.015 ± 0.0078 |
| AGAATGTGG | 1.21 ± 0.28 |
| AGAATTAGGC | 0.999 ± 0.021 |
| AGAATTAGTG | 0.953 ± 0.1 |
| AGACAAGGGT | 1.01 ± 0.018 |
| AGACAGTAGG | 1.03 ± 0.03 |
| AGACATCCTT | 1.04 ± 0.014 |
| AGACGAGGAA | 1.03 ± 0.058 |
| AGACGCCAAG | 1.01 ± 0.029 |
| AGACGCGTAG | 0.999 ± 0.046 |
| AGACGCTTG | 0.9961 ± 0.0042 |
| AGACGGAGGG | 1.015 ± 0.0017 |
| AGACGGATGC | 1.05 ± 0.019 |
| AGACGGCGTG | 0.9799 ± 0.0066 |
| AGACGGCTTG | 1.01 ± 0.025 |
| AGACGGGAAC | 1 ± 0.022 |
| AGACGGGGGG | 1 ± 0.039 |
| AGACGGGTGG | 0.9763 ± 0.0052 |
| AGACGTGTGT | 1.023 ± 0.0088 |
| AGACTAGTTT | 1.02 ± 0.015 |
| AGACTATGTG | 0.991 ± 0.024 |
| AGACTCACTG | 1.09 ± 0.011 |
| AGACTGATGA | 1.01 ± 0.014 |
| AGACTGTGGC | 0.991 ± 0.0061 |
| AGACTTCCGG | 0.969 ± 0.048 |

| Sequence | switch fluorescence ratio |
| --- | --- |
| AGACTTTTAT | 0.976 ± 0.031 |
| AGAGACGCTT | 1.03 ± 0.027 |
| AGAGAGACGG | 0.997 ± 0.026 |
| AGAGAGGTTT | 0.986 ± 0.039 |
| AGAGATCCGG | 0.981 ± 0.018 |
| AGAGATGGGG | 0.996 ± 0.022 |
| AGAGCACTTG | 1.025 ± 0.0032 |
| AGAGCAGGGA | 0.97 ± 0.064 |
| AGAGCGGGGT | 0.998 ± 0.0091 |
| AGAGCTCTTT | 1 ± 0.029 |
| AGAGGACCGA | 1.04 ± 0.05 |
| AGAGGCGCGT | 0.946 ± 0.036 |
| AGAGGCGTAT | 0.974 ± 0.011 |
| AGAGGCTTAC | 1.04 ± 0.051 |
| AGAGGCTTGG | 0.997 ± 0.014 |
| AGAGGGCCGG | 1.03 ± 0.072 |
| AGAGGGCGGA | 1 ± 0.02 |
| AGAGGGCTTG | 0.997 ± 0.018 |
| AGAGGGGAT | 1 ± 0.021 |
| AGAGGGGGCC | 0.98 ± 0.18 |
| AGAGGGGGGA | 1.02 ± 0.041 |
| AGAGGGGGGC | 1.04 ± 0.1 |
| AGAGGGGTCG | 1.02 ± 0.058 |
| AGAGGGTGAC | 1.01 ± 0.016 |
| AGAGGTGGGG | 0.968 ± 0.012 |

| Sequence | switch fluorescence ratio |
| --- | --- |
| AGAGGTTGG | 0.996 ± 0.026 |
| AGAGTAACGG | 0.995 ± 0.015 |
| AGAGTATTTT | 0.999 ± 0.028 |
| AGAGTCAGTG | 0.982 ± 0.022 |
| AGAGTGATGC | 1 ± 0.087 |
| AGAGTGCTTC | 0.999 ± 0.028 |
| AGAGTGGCAA | 1.04 ± 0.016 |
| AGAGTGTGGG | 1.02 ± 0.033 |
| AGAGTTAACG | 0.97158 ± 0.00066 |
| AGAGTTAATG | 0.968 ± 0.011 |
| AGAGTTCCTG | 1.01 ± 0.028 |
| AGAGTTGGGA | 1.01 ± 0.018 |
| AGAGTTTCGA | 1.01 ± 0.034 |
| AGAGTTTGGT | 0.9847 ± 0.0013 |
| AGATAACCCA | 1 ± 0.052 |
| AGATAAGTTT | 1.01 ± 0.034 |
| AGATAATGGC | 1.11 ± 0.19 |
| AGATAGAGTT | 0.997 ± 0.021 |
| AGATAGCAGT | 1.019 ± 0.0016 |
| AGATAGGGGG | 1 ± 0.034 |
| AGATAGGTTG | 0.974 ± 0.038 |
| AGATAGTTGG | 0.99 ± 0.038 |
| AGATATGGTT | 0.994 ± 0.048 |
| AGATATTCCG | 0.987 ± 0.02 |
| AGATATTTGG | 0.994 ± 0.018 |

| Sequence | switch fluorescence ratio |
| --- | --- |
| AGATCCGGGT | 0.992 ± 0.025 |
| AGATCGAACT | 0.994 ± 0.019 |
| AGATCGACGC | 1.19 ± 0.026 |
| AGATCGTGAA | 1 ± 0.0032 |
| AGATCTATAC | 1.018 ± 0.0096 |
| AGATCTTGTA | 0.991 ± 0.065 |
| AGATGAAGTG | 0.99 ± 0.019 |
| AGATGAGAGA | 1 ± 0.016 |
| AGATGAGAGT | 1 ± 0.018 |
| AGATGAGGAC | 0.922 ± 0.049 |
| AGATGGAATT | 0.994 ± 0.048 |
| AGATGGATAA | 0.99 ± 0.015 |
| AGATGGCATG | 0.987 ± 0.019 |
| AGATGGCTGG | 1.02 ± 0.012 |
| AGATGTAGGC | 1.03 ± 0.038 |
| AGATGTGGGT | 0.972 ± 0.02 |
| AGATGTTCCG | 1.05 ± 0.018 |
| AGATGTTGGG | 0.992 ± 0.07 |
| AGATTACGAG | 1.02 ± 0.026 |
| AGATTATCGT | 1.007 ± 0.0088 |
| AGATTATTGA | 0.943 ± 0.031 |
| AGATTCTCGA | 0.998 ± 0.011 |
| AGATTGAATT | 1.02 ± 0.062 |
| AGATTGGGCA | 0.981 ± 0.011 |
| AGATTGGTTC | 0.9953 ± 0.0044 |

| Sequence | switch fluorescence ratio |
| --- | --- |
| AGATTGTACA | 1.02 ± 0.02 |
| AGATTTTCGC | 1 ± 0.0091 |
| AGATTTTGTG | 0.9922 ± 0.0038 |
| AGCAAAGAAT | 1.02 ± 0.042 |
| AGCAAAGTGT | 1.02 ± 0.071 |
| AGCAACAGTT | 1.19 ± 0.28 |
| AGCAATAGGT | 1.94 ± 0.46 |
| AGCAATGCTT | 3.09 ± 0.29 |
| AGCACAGGGG | 0.985 ± 0.045 |
| AGCACATGTA | 0.998 ± 0.021 |
| AGCACGCTTT | 1.019 ± 0.0063 |
| AGCACGGCAG | 0.991 ± 0.021 |
| AGCACGTATC | 1.09 ± 0.059 |
| AGCAGAAAAT | 1.01 ± 0.025 |
| AGCAGGACCC | 1.23 ± 0.054 |
| AGCAGGAGCC | 1.061 ± 0.0063 |
| AGCAGGAGGG | 1.022 ± 0.0081 |
| AGCAGGCGAA | 1.009 ± 0.0035 |
| AGCAGGGCTG | 0.99566 ± 0.00073 |
| AGCAGGGGAC | 1.18 ± 0.23 |
| AGCAGGGGGA | 1.01 ± 0.034 |
| AGCAGGGTGG | 1.02 ± 0.038 |
| AGCAGGTGTG | 1.18 ± 0.048 |
| AGCAGTTGGG | 1.03 ± 0.065 |
| AGCATAATTG | 1.01 ± 0.0076 |
